Results on 11 molecules are retold here after patent US20240270821A1, “GIP/GLP1/GCG TRI-RECEPTOR AGONISTS AND USES THEREOF” (priority 2023, published 2024).

Where a chain is given by its changes, count along the chain named.

The labels stand for the following.
T1: human GIP receptor (human) (UniProt P48546)
T1 sequence (looked up): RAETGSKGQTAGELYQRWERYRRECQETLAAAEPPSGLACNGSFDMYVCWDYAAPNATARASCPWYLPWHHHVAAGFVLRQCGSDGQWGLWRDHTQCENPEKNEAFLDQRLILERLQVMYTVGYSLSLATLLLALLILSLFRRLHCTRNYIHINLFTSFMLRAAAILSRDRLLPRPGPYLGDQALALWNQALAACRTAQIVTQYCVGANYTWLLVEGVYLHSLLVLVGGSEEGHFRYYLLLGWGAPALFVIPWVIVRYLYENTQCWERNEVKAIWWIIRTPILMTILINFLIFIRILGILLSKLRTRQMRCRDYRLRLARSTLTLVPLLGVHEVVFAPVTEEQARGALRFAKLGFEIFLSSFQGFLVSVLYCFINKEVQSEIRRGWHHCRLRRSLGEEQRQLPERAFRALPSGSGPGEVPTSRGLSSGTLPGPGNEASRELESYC

B1: Example 9 (peptide)
chain: YXQGTFTSDFSKXLDKKAQXAFIEYLLAGGPSSGEPPPGGS
modifications: Aib, αMeL; acylated Lys; C-terminal amide; synthetic construct; SITE 2: note = 2-Aminoisobutyric Acid; SITE 13: note = alpha-methyl-leucine; SITE 17: note = Lysine is chemically modified through conjugation of the epsilon-amino group of the Lysine side chain with (2-[2-(2-Amino-ethoxy)-ethoxy]-acetyl)-(gamma-Glu)-CO-(CH2) 18-CO2H; SITE 20: n
B2: Example 25 (peptide)
chain: B1 chain with G39S, G40E, S41G
modifications: Aib, αMeL, acylated Lys, C-terminal amide; synthetic construct; SITE 2: note = 2-Aminoisobutyric Acid; SITE 13: note = alpha-methyl-leucine; SITE 17: note = Lysine is chemically modified through conjugation of the epsilon-amino group of the Lysine side chain with (2-[2-(2-Amino-ethoxy)-ethoxy]-acetyl)2-(gamma-Glu)-CO-(CH2 )16-CO2H; SITE 20:
B3: Example 14 (peptide)
chain: B1 chain with E35A, G39S
modifications: non-natural residues, acyl lysine, C-terminal amide; synthetic construct; SITE 2: note = 2-Aminoisobutyric Acid; SITE 13: note = alpha-methyl-leucine; SITE 17: note = Lysine is chemically modified through conjugation of the epsilon-amino group of the Lysine side chain with (2-[2-(2-Amino-ethoxy)-ethoxy]-acetyl)-(gamma-Glu)-CO-(CH2) 18-CO2H; SITE 20: n
B4: Example 20 (peptide)
chain: B1 chain with Y25W, G39S, G40E, S41G
modifications: non-natural residues, acyl lysine, C-terminal amide; synthetic construct; SITE 2: note = 2-Aminoisobutyric Acid; SITE 13: note = alpha-methyl-leucine; SITE 17: note = Lysine is chemically modified through conjugation of the epsilon-amino group of the Lysine side chain with (2-[2-(2-Amino-ethoxy)-ethoxy]-acetyl)-(gamma-Glu)-CO-(CH2) 18-CO2H; SITE 20: n
B5: Example 1198 (peptide)
chain: YXQGTXTSDXXIXLDXKAQXEFIEXLIEGGPPSXXPPPSGSE
modifications: non-natural residues; lysine acylated AEEA-γGlu-C18 diacid; C-terminal amide; synthetic construct; SITE 2: note = 2-Aminoisobutyric Acid; SITE 6: note = alpha-methyl-2-fluoro-L-phenylalanine; SITE 10: note = 3-(4-Pyridyl)-L-alanine; SITE 11: note = alpha-methyl-L-serine; SITE 13: note = alpha-methyl-leucine; SITE 16: note = L-ornithine; SITE 17: note = Lysine is chemically mo
B6: Example 1200 (peptide)
chain: B5 chain with X35E
modifications: non-natural residues, acylated Lys (AEEA-γGlu-C18 diacid), C-terminal amide; synthetic construct; SITE 2: note = 2-Aminoisobutyric Acid; SITE 6: note = alpha-methyl-2-fluoro-L-phenylalanine; SITE 10: note = 3-(4-Pyridyl)-L-alanine; SITE 11: note = alpha-methyl-L-serine; SITE 13: note = alpha-methyl-leucine; SITE 16: note = L-ornithine; SITE 17: note = Lysine is chemically mo
B7: Example 1233 (peptide)
chain: B5 chain with K17Q, P32S, X34G, X35A
modifications: not fully specified; synthetic construct; SITE 2: note = 2-Aminoisobutyric Acid; SITE 6: note = alpha-methyl-2-fluoro-L-phenylalanine; SITE 10: note = 3-(4-Pyridyl)-L-alanine; SITE 11: note = alpha-methyl-L-serine; SITE 13: note = alpha-methyl-leucine; SITE 16: note = L-ornithine; SITE 20: note = 3-(4-Pyridyl)-L-alanine
B8: Example 1212 (peptide)
chain: B5 chain with K17X, P32S, X34G, X35A
modifications: synthetic construct; SITE 2: note = 2-Aminoisobutyric Acid; SITE 6: note = alpha-methyl-2-fluoro-L-phenylalanine; SITE 10: note = 3-(4-Pyridyl)-L-alanine; SITE 11: note = alpha-methyl-L-serine; SITE 13: note = alpha-methyl-leucine; SITE 16: note = L-ornithine; SITE 17: note = Ornithine is chemically
B9: Example 1202 (peptide)
chain: YXQGTXTSDXXIXLDXKAQXEFIQXLIEGGPSSGAPPPSGS
modifications: synthetic construct; SITE 2: note = 2-Aminoisobutyric Acid; SITE 6: note = alpha-methyl-2-fluoro-L-phenylalanine; SITE 10: note = 3-(4-Pyridyl)-L-alanine; SITE 11: note = alpha-methyl-L-serine; SITE 13: note = alpha-methyl-leucine; SITE 16: note = L-ornithine; SITE 17: note = Lysine is chemically mo
B10: Example 1203 (peptide)
chain: B9 chain with G4A, Q24E
modifications: synthetic construct; SITE 2: note = 2-Aminoisobutyric Acid; SITE 4: note = D-amino acid; SITE 6: note = alpha-methyl-2-fluoro-L-phenylalanine; SITE 10: note = 3-(4-Pyridyl)-L-alanine; SITE 11: note = alpha-methyl-L-serine; SITE 13: note = alpha-methyl-leucine; SITE 16: note = L-ornithine; SITE 17: n
B11: Example 1208 (peptide)
chain: B9 chain with Q24E, A35E
modifications: not fully specified; synthetic construct; SITE 2: note = 2-Aminoisobutyric Acid; SITE 6: note = alpha-methyl-2-fluoro-L-phenylalanine; SITE 10: note = 3-(4-Pyridyl)-L-alanine; SITE 11: note = alpha-methyl-L-serine; SITE 13: note = alpha-methyl-leucine; SITE 16: note = L-ornithine; SITE 17: note = Lysine is chemically mo

For the first assay, the target named is hGLP-1R (Homo sapiens, UniProt P43220). As to the kind of experiment: cell-based or functional assay.
Chain of hGLP-1R (P43220 24-463): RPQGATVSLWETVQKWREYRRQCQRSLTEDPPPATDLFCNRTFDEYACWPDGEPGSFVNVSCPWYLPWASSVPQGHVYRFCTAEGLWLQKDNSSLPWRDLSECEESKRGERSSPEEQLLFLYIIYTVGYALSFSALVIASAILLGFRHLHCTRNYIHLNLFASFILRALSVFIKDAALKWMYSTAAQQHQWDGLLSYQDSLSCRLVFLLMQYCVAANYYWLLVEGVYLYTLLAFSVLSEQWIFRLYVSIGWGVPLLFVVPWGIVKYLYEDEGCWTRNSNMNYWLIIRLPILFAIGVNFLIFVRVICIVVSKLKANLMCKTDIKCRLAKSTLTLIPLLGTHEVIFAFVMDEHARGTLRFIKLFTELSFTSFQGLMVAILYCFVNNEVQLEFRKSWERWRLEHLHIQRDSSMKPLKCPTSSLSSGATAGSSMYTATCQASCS
On to B1, for which the Relative cAMP EC50 turned out to be 1.61 nM and the cAMP Rel EC50 (in the presence of 1% HSA) is 402 nM.

Turning to B2, the Relative cAMP EC50 stood at 3.34 nM and the cAMP Rel EC50 (in the presence of 1% HSA) is 520 nM.

Regarding B3, the Relative cAMP EC50 came to 1.67 nM and the cAMP Rel EC50 (in the presence of 1% HSA) came out at 232 nM.

In the case of B4, the Relative cAMP EC50 came to 2.45 nM and the cAMP Rel EC50 (in the presence of 1% HSA) is 326 nM.

B5: the Relative cAMP EC50 was determined as 0.475 nM and the cAMP Rel EC50 (in the presence of 1% HSA) was 61 nM.

In the case of B6, the Relative cAMP EC50 amounted to 0.727 nM and the cAMP Rel EC50 (in the presence of 1% HSA) was found to be 91.4 nM.

For B7, the Relative cAMP EC50 turned out to be 1.09 nM and the cAMP Rel EC50 (1% HSA) was determined as 1.06 nM.

B8 showed a Relative cAMP EC50 of 0.357 nM and a cAMP Rel EC50 (1% HSA) of 38.2 nM.

B9 had a Relative cAMP EC50 of 0.237 nM and a cAMP Rel EC50 (1% HSA) of 23.1 nM.

For the molecule B10, the Relative cAMP EC50 came out at 0.292 nM and the cAMP Rel EC50 (1% HSA) was 38.9 nM.

In turn, B11 had a Relative cAMP EC50 of 0.526 nM and a cAMP Rel EC50 (1% HSA) of 44.8 nM.

The next assay addresses T1, human GIP receptor (human). As to the kind of experiment: cell-based or functional assay.
Turning to B1, the Relative cAMP EC50 came out at 0.205 nM and the cAMP Rel EC50 (in the presence of 1% HSA) was 41.8 nM.

Take B2: the Relative cAMP EC50 was found to be 0.128 nM and the cAMP Rel EC50 (in the presence of 1% HSA) stood at 19.8 nM.

Turning to B3, the Relative cAMP EC50 came out at 0.17 nM and the cAMP Rel EC50 (in the presence of 1% HSA) was determined as 34.7 nM.

Turning to B4, the Relative cAMP EC50 turned out to be 0.381 nM and the cAMP Rel EC50 (in the presence of 1% HSA) amounted to 42.3 nM.

Consider B5, for which the Relative cAMP EC50 was 0.00663 nM and the cAMP Rel EC50 (in the presence of 1% HSA) worked out at 0.67 nM.

On to B6, for which the Relative cAMP EC50 was 0.00883 nM and the cAMP Rel EC50 (in the presence of 1% HSA) was determined as 0.896 nM.

In the case of B7, the Relative cAMP EC50 amounted to 0.012 nM and the cAMP Rel EC50 (1% HSA) is 0.00988 nM.

B8: the Relative cAMP EC50 worked out at 0.00702 nM and the cAMP Rel EC50 (1% HSA) came out at 0.614 nM.

Take B9: the Relative cAMP EC50 is 0.00635 nM and the cAMP Rel EC50 (1% HSA) is 0.471 nM.

Molecule B10 showed a Relative cAMP EC50 of 0.0774 nM and a cAMP Rel EC50 (1% HSA) of 8.5 nM.

B11 had a Relative cAMP EC50 of 0.00907 nM and a cAMP Rel EC50 (1% HSA) of 0.786 nM.

For a further assay, the target named is human glucagon receptor (human) (UniProt P47871). As to the kind of experiment: cell-based or functional assay.
Chain of human glucagon receptor (human) (P47871 26-477): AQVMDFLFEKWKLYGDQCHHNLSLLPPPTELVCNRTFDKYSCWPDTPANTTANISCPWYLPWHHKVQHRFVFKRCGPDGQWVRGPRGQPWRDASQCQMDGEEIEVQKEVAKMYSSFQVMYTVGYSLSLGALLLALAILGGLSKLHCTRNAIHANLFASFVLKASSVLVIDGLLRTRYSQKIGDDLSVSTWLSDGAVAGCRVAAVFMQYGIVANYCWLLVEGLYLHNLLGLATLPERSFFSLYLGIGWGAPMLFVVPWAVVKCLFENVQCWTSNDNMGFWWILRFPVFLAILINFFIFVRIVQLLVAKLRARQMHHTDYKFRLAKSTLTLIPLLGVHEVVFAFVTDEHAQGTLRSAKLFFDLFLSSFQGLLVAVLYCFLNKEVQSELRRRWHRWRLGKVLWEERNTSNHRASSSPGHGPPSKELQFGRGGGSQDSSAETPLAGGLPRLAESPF
B1: the Relative cAMP EC50 is 7.19 nM and the cAMP Rel EC50 (in the presence of 1% HSA) turned out to be 1430 nM.

Consider B2, for which the Relative cAMP EC50 turned out to be 6.8 nM and the cAMP Rel EC50 (in the presence of 1% HSA) is 939 nM.

Turning to B3, the Relative cAMP EC50 worked out at 7.23 nM and the cAMP Rel EC50 (in the presence of 1% HSA) came out at 1420 nM.

In the case of B4, the Relative cAMP EC50 amounted to 15.4 nM and the cAMP Rel EC50 (in the presence of 1% HSA) is 587 nM.

For B5, the Relative cAMP EC50 was found to be 1.8 nM and the cAMP Rel EC50 (in the presence of 1% HSA) amounted to 314 nM.

As to B6, the Relative cAMP EC50 was determined as 1.5 nM and the cAMP Rel EC50 (in the presence of 1% HSA) amounted to 278 nM.

As for B7, the Relative cAMP EC50 was determined as 9.48 nM and the cAMP Rel EC50 (1% HSA) stood at 9.9 nM.

B8 showed a Relative cAMP EC50 of 1.71 nM and a cAMP Rel EC50 (1% HSA) of 230 nM.

With B9, the Relative cAMP EC50 stood at 0.5 nM and the cAMP Rel EC50 (1% HSA) worked out at 70.3 nM.

B10 returned a Relative cAMP EC50 of 2.58 nM and a cAMP Rel EC50 (1% HSA) of 436 nM.

As to B11, the Relative cAMP EC50 is 3.52 nM and the cAMP Rel EC50 (1% HSA) amounted to 451 nM.
